Numbered stars: 1 amine (or outer) side, 2 acyl side, 3 side chain; on linkers, the order of the positions; unused ones are H or OH. Side chains are listed from the residue outwards. Ends that are not written are not given here. * marks the point of attachment. γGlu = O=C(O)[C@H](CCC(=O)[*:2])N[*:1]; Palmitoyl = CCCCCCCCCCCCCCCC(=O)*
T1: human glucose-dependent insulinotropic peptide (gastric inhibitory polypeptide) receptor (human) (UniProt P48546)
T1 sequence (looked up): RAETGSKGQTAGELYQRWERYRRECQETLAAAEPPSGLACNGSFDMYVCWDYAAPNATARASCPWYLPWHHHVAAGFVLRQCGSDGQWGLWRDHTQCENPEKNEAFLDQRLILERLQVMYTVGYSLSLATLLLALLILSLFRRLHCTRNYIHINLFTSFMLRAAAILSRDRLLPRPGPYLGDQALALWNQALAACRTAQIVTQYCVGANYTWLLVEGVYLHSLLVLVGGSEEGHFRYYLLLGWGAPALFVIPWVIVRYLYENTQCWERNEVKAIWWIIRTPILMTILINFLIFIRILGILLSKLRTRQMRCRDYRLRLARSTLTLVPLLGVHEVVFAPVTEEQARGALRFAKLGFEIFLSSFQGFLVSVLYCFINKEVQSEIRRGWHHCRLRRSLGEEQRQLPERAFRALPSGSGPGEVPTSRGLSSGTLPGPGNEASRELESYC


Key:
Test in all cases: cell-based or functional assay
[1] = biological target: human GLP-1 receptor (human, UniProt P43220 24-463)
[2] = biological target: T1, human glucose-dependent insulinotropic peptide (gastric inhibitory polypeptide) receptor (human)
[3] = biological target: human glucagon receptor (human, UniProt P47871 26-477)
human glucagon receptor, sequence (P47871 26-477): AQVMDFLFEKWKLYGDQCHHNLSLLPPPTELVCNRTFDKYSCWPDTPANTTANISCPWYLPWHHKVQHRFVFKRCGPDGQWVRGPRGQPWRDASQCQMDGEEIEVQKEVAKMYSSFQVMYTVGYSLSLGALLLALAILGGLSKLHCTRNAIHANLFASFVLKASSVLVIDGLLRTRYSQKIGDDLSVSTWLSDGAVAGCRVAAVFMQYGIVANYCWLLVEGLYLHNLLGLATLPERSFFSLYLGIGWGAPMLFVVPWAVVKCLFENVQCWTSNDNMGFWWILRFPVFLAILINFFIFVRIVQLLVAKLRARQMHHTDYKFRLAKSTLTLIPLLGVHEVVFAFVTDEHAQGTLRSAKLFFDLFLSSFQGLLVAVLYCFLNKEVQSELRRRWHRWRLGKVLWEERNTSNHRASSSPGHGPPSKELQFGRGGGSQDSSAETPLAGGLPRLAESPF

human GLP-1 receptor, sequence (P43220 24-463): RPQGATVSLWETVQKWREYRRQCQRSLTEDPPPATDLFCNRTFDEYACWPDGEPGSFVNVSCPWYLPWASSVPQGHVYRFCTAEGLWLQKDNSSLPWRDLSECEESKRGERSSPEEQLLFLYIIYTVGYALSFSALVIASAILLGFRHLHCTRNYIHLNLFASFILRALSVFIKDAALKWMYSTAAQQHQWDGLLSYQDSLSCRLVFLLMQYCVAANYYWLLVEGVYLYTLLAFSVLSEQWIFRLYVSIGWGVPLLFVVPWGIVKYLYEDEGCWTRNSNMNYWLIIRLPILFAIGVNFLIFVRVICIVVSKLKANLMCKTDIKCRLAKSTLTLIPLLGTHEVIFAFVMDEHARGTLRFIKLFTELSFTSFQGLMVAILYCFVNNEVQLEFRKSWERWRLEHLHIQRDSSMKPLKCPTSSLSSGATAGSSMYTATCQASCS

Row | Binder | cAMP EC50 (assay 1) [1] [pM] | cAMP EC50 (assay 1) [2] [nM] | cAMP EC50 (assay 1) [3] [pM]
1 | HGEGTFTSDYSKYK([γGlu-Palmitoyl])DSRRAQDFVQWLVAGG-NH2 (N-terminus assumed; SMILES CCCCCCCCCCCCCCCC(=O)N[C@@H](CCC(=O)NCCCC[C@H](NC(=O)[C@H](Cc1ccc(O)cc1)NC(=O)[C@H](CCCCN)NC(=O)[C@H](CO)NC(=O)[C@H](Cc1ccc(O)cc1)NC(=O)[C@H](CC(=O)O)NC(=O)[C@H](CO)NC(=O)[C@@H](NC(=O)[C@H](Cc1ccccc1)NC(=O)[C@@H](NC(=O)CNC(=O)[C@H](CCC(=O)O)NC(=O)CNC(=O)[C@@H](N)Cc1c[nH]cn1)[C@@H](C)O)[C@@H](C)O)C(=O)N[C@@H](CC(=O)O)C(=O)N[C@@H](CO)C(=O)N[C@@H](CCCNC(=N)N)C(=O)N[C@@H](CCCNC(=N)N)C(=O)N[C@@H](C)C(=O)N[C@@H](CCC(N)=O)C(=O)N[C@@H](CC(=O)O)C(=O)N[C@@H](Cc1ccccc1)C(=O)N[C@H](C(=O)N[C@@H](CCC(N)=O)C(=O)N[C@@H](Cc1c[nH]c2ccccc12)C(=O)N[C@@H](CC(C)C)C(=O)N[C@H](C(=O)N[C@@H](C)C(=O)NCC(=O)NCC(N)=O)C(C)C)C(C)C)C(=O)O) [g733] | 23.1 | 817 | 62000
2 | HSQGTFTSDYSKYK([γGlu-Palmitoyl])DSRSARDFVEWLVAGG-NH2 (N-terminus assumed; SMILES CCCCCCCCCCCCCCCC(=O)N[C@@H](CCC(=O)NCCCC[C@H](NC(=O)[C@H](Cc1ccc(O)cc1)NC(=O)[C@H](CCCCN)NC(=O)[C@H](CO)NC(=O)[C@H](Cc1ccc(O)cc1)NC(=O)[C@H](CC(=O)O)NC(=O)[C@H](CO)NC(=O)[C@@H](NC(=O)[C@H](Cc1ccccc1)NC(=O)[C@@H](NC(=O)CNC(=O)[C@H](CCC(N)=O)NC(=O)[C@H](CO)NC(=O)[C@@H](N)Cc1c[nH]cn1)[C@@H](C)O)[C@@H](C)O)C(=O)N[C@@H](CC(=O)O)C(=O)N[C@@H](CO)C(=O)N[C@@H](CCCNC(=N)N)C(=O)N[C@@H](CO)C(=O)N[C@@H](C)C(=O)N[C@@H](CCCNC(=N)N)C(=O)N[C@@H](CC(=O)O)C(=O)N[C@@H](Cc1ccccc1)C(=O)N[C@H](C(=O)N[C@@H](CCC(=O)O)C(=O)N[C@@H](Cc1c[nH]c2ccccc12)C(=O)N[C@@H](CC(C)C)C(=O)N[C@H](C(=O)N[C@@H](C)C(=O)NCC(=O)NCC(N)=O)C(C)C)C(C)C)C(=O)O) [g803] | 29.6 | 32.9 | 10.8
3 | HSQGTFTSDYSKYK([γGlu-Palmitoyl])DSERARDFVAWLVAGG-NH2 (N-terminus assumed; SMILES CCCCCCCCCCCCCCCC(=O)N[C@@H](CCC(=O)NCCCC[C@H](NC(=O)[C@H](Cc1ccc(O)cc1)NC(=O)[C@H](CCCCN)NC(=O)[C@H](CO)NC(=O)[C@H](Cc1ccc(O)cc1)NC(=O)[C@H](CC(=O)O)NC(=O)[C@H](CO)NC(=O)[C@@H](NC(=O)[C@H](Cc1ccccc1)NC(=O)[C@@H](NC(=O)CNC(=O)[C@H](CCC(N)=O)NC(=O)[C@H](CO)NC(=O)[C@@H](N)Cc1c[nH]cn1)[C@@H](C)O)[C@@H](C)O)C(=O)N[C@@H](CC(=O)O)C(=O)N[C@@H](CO)C(=O)N[C@@H](CCC(=O)O)C(=O)N[C@@H](CCCNC(=N)N)C(=O)N[C@@H](C)C(=O)N[C@@H](CCCNC(=N)N)C(=O)N[C@@H](CC(=O)O)C(=O)N[C@@H](Cc1ccccc1)C(=O)N[C@H](C(=O)N[C@@H](C)C(=O)N[C@@H](Cc1c[nH]c2ccccc12)C(=O)N[C@@H](CC(C)C)C(=O)N[C@H](C(=O)N[C@@H](C)C(=O)NCC(=O)NCC(N)=O)C(C)C)C(C)C)C(=O)O) [g777] | 27.4 | 4.53 | 1.24
4 | HSQGTFTSDYSEYK([γGlu-Palmitoyl])DSERARDFVAWLVAGG-NH2 (N-terminus assumed; SMILES CCCCCCCCCCCCCCCC(=O)N[C@@H](CCC(=O)NCCCC[C@H](NC(=O)[C@H](Cc1ccc(O)cc1)NC(=O)[C@H](CCC(=O)O)NC(=O)[C@H](CO)NC(=O)[C@H](Cc1ccc(O)cc1)NC(=O)[C@H](CC(=O)O)NC(=O)[C@H](CO)NC(=O)[C@@H](NC(=O)[C@H](Cc1ccccc1)NC(=O)[C@@H](NC(=O)CNC(=O)[C@H](CCC(N)=O)NC(=O)[C@H](CO)NC(=O)[C@@H](N)Cc1c[nH]cn1)[C@@H](C)O)[C@@H](C)O)C(=O)N[C@@H](CC(=O)O)C(=O)N[C@@H](CO)C(=O)N[C@@H](CCC(=O)O)C(=O)N[C@@H](CCCNC(=N)N)C(=O)N[C@@H](C)C(=O)N[C@@H](CCCNC(=N)N)C(=O)N[C@@H](CC(=O)O)C(=O)N[C@@H](Cc1ccccc1)C(=O)N[C@H](C(=O)N[C@@H](C)C(=O)N[C@@H](Cc1c[nH]c2ccccc12)C(=O)N[C@@H](CC(C)C)C(=O)N[C@H](C(=O)N[C@@H](C)C(=O)NCC(=O)NCC(N)=O)C(C)C)C(C)C)C(=O)O) [g846] | 43.8 | 11.8 | 34.1

Further lines, results first:

Row | cAMP EC50 (assay 1) [1] [pM] | cAMP EC50 (assay 1) [2] [nM] | cAMP EC50 (assay 1) [3] [pM] | Binder
5 | 33.9 | 71.1 | 11.7 | HSQGTFTSDYSRK([γGlu-Palmitoyl])LDSERARDFVAWLVAGG-NH2 (N-terminus assumed; SMILES CCCCCCCCCCCCCCCC(=O)N[C@@H](CCC(=O)NCCCC[C@H](NC(=O)[C@H](CCCNC(=N)N)NC(=O)[C@H](CO)NC(=O)[C@H](Cc1ccc(O)cc1)NC(=O)[C@H](CC(=O)O)NC(=O)[C@H](CO)NC(=O)[C@@H](NC(=O)[C@H](Cc1ccccc1)NC(=O)[C@@H](NC(=O)CNC(=O)[C@H](CCC(N)=O)NC(=O)[C@H](CO)NC(=O)[C@@H](N)Cc1c[nH]cn1)[C@@H](C)O)[C@@H](C)O)C(=O)N[C@@H](CC(C)C)C(=O)N[C@@H](CC(=O)O)C(=O)N[C@@H](CO)C(=O)N[C@@H](CCC(=O)O)C(=O)N[C@@H](CCCNC(=N)N)C(=O)N[C@@H](C)C(=O)N[C@@H](CCCNC(=N)N)C(=O)N[C@@H](CC(=O)O)C(=O)N[C@@H](Cc1ccccc1)C(=O)N[C@H](C(=O)N[C@@H](C)C(=O)N[C@@H](Cc1c[nH]c2ccccc12)C(=O)N[C@@H](CC(C)C)C(=O)N[C@H](C(=O)N[C@@H](C)C(=O)NCC(=O)NCC(N)=O)C(C)C)C(C)C)C(=O)O) [g820]
6 | 51.2 | 88.3 | 8.31 | HSQGTFTSDYSRK([γGlu-Palmitoyl])LDSERARDFVAWLVAGG-OH (N-terminus assumed; SMILES CCCCCCCCCCCCCCCC(=O)N[C@@H](CCC(=O)NCCCC[C@H](NC(=O)[C@H](CCCNC(=N)N)NC(=O)[C@H](CO)NC(=O)[C@H](Cc1ccc(O)cc1)NC(=O)[C@H](CC(=O)O)NC(=O)[C@H](CO)NC(=O)[C@@H](NC(=O)[C@H](Cc1ccccc1)NC(=O)[C@@H](NC(=O)CNC(=O)[C@H](CCC(N)=O)NC(=O)[C@H](CO)NC(=O)[C@@H](N)Cc1c[nH]cn1)[C@@H](C)O)[C@@H](C)O)C(=O)N[C@@H](CC(C)C)C(=O)N[C@@H](CC(=O)O)C(=O)N[C@@H](CO)C(=O)N[C@@H](CCC(=O)O)C(=O)N[C@@H](CCCNC(=N)N)C(=O)N[C@@H](C)C(=O)N[C@@H](CCCNC(=N)N)C(=O)N[C@@H](CC(=O)O)C(=O)N[C@@H](Cc1ccccc1)C(=O)N[C@H](C(=O)N[C@@H](C)C(=O)N[C@@H](Cc1c[nH]c2ccccc12)C(=O)N[C@@H](CC(C)C)C(=O)N[C@H](C(=O)N[C@@H](C)C(=O)NCC(=O)NCC(=O)O)C(C)C)C(C)C)C(=O)O) [g842]
7 | 23.2 | 29.4 | 39.6 | HGQGTFTSDYSKYK([γGlu-Palmitoyl])DSERARDFVAWLVAGG-NH2 (N-terminus assumed; SMILES CCCCCCCCCCCCCCCC(=O)N[C@@H](CCC(=O)NCCCC[C@H](NC(=O)[C@H](Cc1ccc(O)cc1)NC(=O)[C@H](CCCCN)NC(=O)[C@H](CO)NC(=O)[C@H](Cc1ccc(O)cc1)NC(=O)[C@H](CC(=O)O)NC(=O)[C@H](CO)NC(=O)[C@@H](NC(=O)[C@H](Cc1ccccc1)NC(=O)[C@@H](NC(=O)CNC(=O)[C@H](CCC(N)=O)NC(=O)CNC(=O)[C@@H](N)Cc1c[nH]cn1)[C@@H](C)O)[C@@H](C)O)C(=O)N[C@@H](CC(=O)O)C(=O)N[C@@H](CO)C(=O)N[C@@H](CCC(=O)O)C(=O)N[C@@H](CCCNC(=N)N)C(=O)N[C@@H](C)C(=O)N[C@@H](CCCNC(=N)N)C(=O)N[C@@H](CC(=O)O)C(=O)N[C@@H](Cc1ccccc1)C(=O)N[C@H](C(=O)N[C@@H](C)C(=O)N[C@@H](Cc1c[nH]c2ccccc12)C(=O)N[C@@H](CC(C)C)C(=O)N[C@H](C(=O)N[C@@H](C)C(=O)NCC(=O)NCC(N)=O)C(C)C)C(C)C)C(=O)O) [g732]
